Earlier results on one substance are cited in patent US20100209353A1, “TUMOR TARGETING PROTEIN CONJUGATE AND A METHOD FOR PREPARING THE SAME” (KOREA INSTITUTE OF SCIENCE AND TECHNOLOGY, priority 2009, published 2010).

The conditions of this series: conventional albumin.

Take albumin: the particle size is given as 2˜5 nm.
